{"source": "the nanobody polyreactivity screen of Harvey et al. (2022)"}
{"experiment": "yeast display, Sf9 membrane polyspecificity reagent, FACS + sequencing; frameworks hold sequencing errors", "in_short": "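Galactose-induced (36–48 hours) yeast carrying a synthetic nanobody display library were exposed to 10% biotinylated, detergent-solubilized Sf9 membrane reagent at 4 °C for 1 hour. FACS followed streptavidin microbead enrichment, using low and high (top ~1%) gates for expression (anti-HA) and reagent binding (streptavidin). Colony PCR, MiSeq 2 × 250 sequencing and CDR-length filtering followed. Labels for polyreactivity reflect the gate of origin.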"}
{"sequence": "QVQLVESGGGLVQAGGSLRLSCAASGFTLYAYVMGWYRQAPGKERDLVAAISRSGGSTYYADSVKGRFTISRDNAKNTVYLQMNSLKPEDTAVYYCAAQYKRYHRLYGYWGQGTQVTVSS", "polyreactivity (PSR sort gate)": "high polyreactivity"}
{"sequence": "QVQLVESGGGLVQAGGSLRLSCAASGFTLYGYAMGWYRQAPGKERELVAGIRYSGGRTYYADSVKGRFTISRDNAKNTVYLEMNSLKPEDTAVYYCAAVFKLSSSFYYWGQGTQVTVSS", "polyreactivity (PSR sort gate)": "high polyreactivity"}
{"sequence": "QVQLVESGGGLVQAGGSLRLSCAASGFTLYPYAMGRYRKAPGKERELVAAISSSSGSTYYADSVKGRFTISRDNAKNTVYVQMNSLKPDDTAVYYCARDSGYYWYYRYGYWGQGTQVTVSS", "polyreactivity (PSR sort gate)": "high polyreactivity"}
{"sequence": "QVQLVESGGGLVQAGGSLRLSCAASGFTLYRYAMGWYRQAPAKERELVAANNSRGGSTYYADSVKGRFTISRDNAKITVYLQMISLKPDDTAVYYCNARRIRGGVRLTSPFYYWGQGTHVTVSS", "polyreactivity (PSR sort gate)": "high polyreactivity"}
{"sequence": "QVQLVESGGGLVQAGGSLRLSCAASGFTLYRYAMVWYRQAPGKERELVAAISRGSSTNYADSVKGRFTISRDNAKNTVYLQMNSLKPEDTAVYYCAARIVTLGSSRARSFTEYYWGQGTQVTVSS", "polyreactivity (PSR sort gate)": "high polyreactivity"}
{"sequence": "QVQLVESGGGLVQAGGSLRLSCAASGFTLYRYVMGWYRQAPGKERELVAAITWSGGSTYYADSVKGRFTISRDNAKNTVYLQMNSLKPEDTAVYYCAARLNVRGWGQGTQVTVSS", "polyreactivity (PSR sort gate)": "low polyreactivity"}
{"sequence": "QVQLVESGGGLVQAGGSLRLSCAASGFTLYSYAMGWYRQAPGKERELVARISRSGGRTYYADSVKGRFTISRDNAKNTVYLQMNSLKPEDTAVYYGNARSLYYSYDYWGQGTQVTVSS", "polyreactivity (PSR sort gate)": "high polyreactivity"}
{"sequence": "QVQLVESGGGLVQAGGSLRLSCAASGFTLYYYAMGWYRQAPGKERELVAAIRSGGRTYYADSVKGRFTISRDNAKNTVYLQMNSLKPEDTAVYYCAARYRVYRGSRGITDYGYWGQGTQVTVSS", "polyreactivity (PSR sort gate)": "high polyreactivity"}
{"sequence": "QVQLVESGGGLVQAGGSLRLSCAASGFTSAVYAMGWYRQAPGKERELVAAIRRGGSTNYADSVKGRFTISRDNAKNTVYLQMNSLKPEDTAVYYCAAAGRGWFGYWGQGTQVTVSS", "polyreactivity (PSR sort gate)": "high polyreactivity"}
{"sequence": "QVQLVESGGGLVQAGGSLRLSCAASGFTSAYNAMGWYRQAPGKERELVATISFRGSSTYYADSVKGRFTISRDNAKNTVYLQMNSQKPEDTAVYYCAADPYDARAVSEPVFFGHYDFWGQGTQVTVSS", "polyreactivity (PSR sort gate)": "low polyreactivity"}
{"sequence": "QVQLVESGGGLVQAGGSLRLSCAASGFTSGYNAMGWYRQAPGKERELVATITRGTRTYYADSVKGRFTISRDNAKNTVYLQMNSLKPEDTAVYYCNARVYYKTYGGYYSWGQGTQVTVSS", "polyreactivity (PSR sort gate)": "high polyreactivity"}
{"sequence": "QVQLVESGGGLVQAGGSLRLSCAASGFTSNEYAMGWYRPAAGTERELVAAISKSGGRTYYADSVKGRFTISRDNAKNTVYLQMNSLKPEDTAVYYCGKRRNTTYYAGGFDYWGQGTKVTVSS", "polyreactivity (PSR sort gate)": "high polyreactivity"}
{"sequence": "QVQLVESGGGLVQAGGSLRLSCAASGFTSWDIDMGCYRQAPGIEREMVAAITGGGTTNYADSVKGRFTISRDNAKNTVYLQMNSLKPEDTAVYYCAAKPWWYSGYDYWGQGTQVTVSS", "polyreactivity (PSR sort gate)": "low polyreactivity"}
{"sequence": "QVQLVESGGGLVQAGGSLRLSCAASGFTSYLYTMGWYRQAPGKERELVAAISNSGGNTYYADSVKGRFTISRDNAKNTVYLQMNSLKPEDTAVYYCAARLFAAKYRYGYWGQGTQVTVSS", "polyreactivity (PSR sort gate)": "high polyreactivity"}
{"sequence": "QVQLVESGGGLVQAGGSLRLSCAASGFTSYTNAMGWYRQAPGKERELVAAIDVSGSDTYYADSVKGRFTISRDNAKNTVYLQMNSLKPEDTAVYYCAAEYYSYYYQGYDYWGQGTQVTVSS", "polyreactivity (PSR sort gate)": "high polyreactivity"}
{"sequence": "QVQLVESGGGLVQAGGSLRLSCAASGFTVAIYAMGWYRHAPGKERELVAAINRCGGSTYYADSVKGRFTISRDNAKNSVYLQMNSLKTEDTAVYYCNKRYRVWFDYWGQGTQVTVSS", "polyreactivity (PSR sort gate)": "high polyreactivity"}
{"sequence": "QVQLVESGGGLVQAGGSLRLSCAASGFTVDLYAMGWYRQAPGKERELVAAITSSGGSTYYADSVKGRFTISRDNAKNTVYLQMNSLTPEDTAVYYCAVAYSSHTSYYSWGQGTQVTVSS", "polyreactivity (PSR sort gate)": "low polyreactivity"}
{"sequence": "QVQLVESGGGLVQAGGSLRLSCAASGFTVHDYAMGWYRQAPGKERELVAAISFSGGRTYYADSVKGRFSISRDNAKNTVYLQMNSLKPEDTAVYYCNAKGQRIKRWRGYWGQGTQVTVSS", "polyreactivity (PSR sort gate)": "high polyreactivity"}
{"sequence": "QVQLVESGGGLVQAGGSLRLSCAASGFTVIDYAMGWYSQAPGKERELVAAITTGTITYYADSVTGRFTISRDNAKNTVYLQMNSLKPEDTAVYYCNADWLTLATTMNYWGQGTQVTVSS", "polyreactivity (PSR sort gate)": "low polyreactivity"}
{"sequence": "QVQLVESGGGLVQAGGSLRLSCAASGFTVSAYALGWYRQAPGKERELVAAISTRGGSTRYADSVKGRFTISRDNAKNTVYLQMNSLKPEDTAVYYCAADTRSFYRYDYWGQGTQVTVSS", "polyreactivity (PSR sort gate)": "high polyreactivity"}
{"sequence": "QVQLVESGGGLVQAGGSLRLSCAASGFTYDSYAMRWYRQAPGKERELVAAITRRGGSTYYADSVKGRFTISRDNAKNTVYLQMNSLKPEDTAVYYCATLRLRSLGQRNYWGQGTQVTVSS", "polyreactivity (PSR sort gate)": "high polyreactivity"}
{"sequence": "QVQLVESGGGLVQAGGSLRLSCAASGFTYGRYAMGWYRQAPRKERELVAAISFSGGRTYYADSVKGRFTISRDNAKNTVYLQMKSLKPEDTAVYYCAARRRQEHVGRSSYARYDYWGQGTQVTVSA", "polyreactivity (PSR sort gate)": "high polyreactivity"}
{"sequence": "QVQLVESGGGLVQAGGSLRLSCAASGFTYHVYAMGWYRQAPGKERELVAAISTGDDTTFYADSVKGRFTISRDNAKNTVYLQMNSLKPEDSAVYYCAAEYQVEYYYTTNFLTTYDYWGQGTQVTVSS", "polyreactivity (PSR sort gate)": "low polyreactivity"}
{"sequence": "QVQLVESGGGLVQAGGSLRLSCAASGFTYKYYAMGWYRQAPGKERELVAAISGSGGRTYYADSVKGRFTISRDNAKNTVYLQMNSLKPEDTAVYYCAAVYLVTRGARYDYWGQGTQVTVSS", "polyreactivity (PSR sort gate)": "high polyreactivity"}
{"sequence": "QVQLVESGGGLVQAGGSLRLSCAASGFTYPANAMGWYRQAPGKERELVASISGSGGRTYYADSVKGRFTISRDNAQNTVYLQMNSLKPEDTAVYYCNRYSYWYRGEYGYWGQGTQVTVSS", "polyreactivity (PSR sort gate)": "high polyreactivity"}
{"sequence": "QVQLVESGGGLVQAGGSLRLSCAASGFTYRVNAMGWYRQATGKERELVAAITVSDGRTYYADSVKGRFTISRDNAKNTVYLQMNSLKPEDTAVYYCAADYKGAFTTDWSSEYEYWGQGTQVTVSS", "polyreactivity (PSR sort gate)": "low polyreactivity"}
{"sequence": "QVQLVESGGGLVQAGGSLRLSCAASGFTYSKNAMGWDRQAPAKERELVAVITRRGGSTYYADSVKGRFTISRDNAKNTVYLQMNSLKPEDTAVYYCAAASFTRRDLDYWGQGTQVTVSS", "polyreactivity (PSR sort gate)": "high polyreactivity"}
{"sequence": "QVQLVESGGGLVQAGGSLRLSCAASGFTYSLYDMGWYRQAPGKERELVAAISSDGSTNYADSVKGRFTISRDNAKNTVYLQMNSLKPEDTAVYYCAADETFLSYWLNYWGQGTQVTVSS", "polyreactivity (PSR sort gate)": "low polyreactivity"}
{"sequence": "QVQLVESGGGLVQAGGSLRLSCAASGFYNTMGWYRQAPRKERELVAAISTGGMTNYADSVKGRFTISRDNAKNTVYLQMNSLKPVDTAVYYCAADGYSTVYSTYDYWGQGTQVTVSS", "polyreactivity (PSR sort gate)": "low polyreactivity"}
{"sequence": "QVQLVESGGGLVQAGGSLRLSCAASGGIFADYAMGWYRQAPGKERELVAAISSGGNTNYADSVKGRFTISRDNAKNTVYLQMNSLKPEDTAVYYCNRDTSYYRYVYYEGNDYWGQGTQVTVSS", "polyreactivity (PSR sort gate)": "low polyreactivity"}
{"sequence": "QVQLVESGGGLVQAGGSLRLSCAASGGIFAYYAMGWYRQAPGKERELVAAITSRGGRTYYADSVKGRFTISRDNAKNTVYFQMNSLKPEDTEVYYCNAERFWPWDYDYWGQGTQVTVSS", "polyreactivity (PSR sort gate)": "high polyreactivity"}
{"sequence": "QVQLVESGGGLVQAGGSLRLSCAASGGIFDIYAMGWYRQAPGKERELVAANRGSGGRTYYADSVKGRFTISRDNAKNTVYLQMNSLKPEDTAVYYCAARPSIVTGLRYGYWGQGTQVTVSS", "polyreactivity (PSR sort gate)": "high polyreactivity"}
{"sequence": "QVQLVESGGGLVQAGGSLRLSCAASGGIFDPYAMGWYRQAPGKERELVAAITNSGGSTYYADSVKGRFTISRDNAKNTVYLQMNSLKPEDTAVYYCAAEGLYVGYDYWGQGTQVTVSS", "polyreactivity (PSR sort gate)": "low polyreactivity"}
{"sequence": "QVQLVESGGGLVQAGGSLRLSCAASGGIFDTNAMGWYRQAPGKEREFVAAITGSGGSTYYADSVKGRFTISRDYAKNSVYLQMNSLKPEDTAVYYCAAPLSYYWVFIVRYGYDYWGQGTQVTVSS", "polyreactivity (PSR sort gate)": "low polyreactivity"}
{"sequence": "QVQLVESGGGLVQAGGSLRLSCAASGGIFDTYAMGWYRQAPGKERELVAAISRRGGNTYYADSVKGRFTISRDNAKNTVYLQMNSLKPEDTAVYYCAAYYHGRMDYWGQGTQVTVSS", "polyreactivity (PSR sort gate)": "high polyreactivity"}
{"sequence": "QVQLVESGGGLVQAGGSLRLSCAASGGIFGANSMGWYRQAPGKERELVATITRGGSTNYADSVKGRFTISRDNAKNTVYLQMNSLKTEDTAVYYCAARFYSRAFWPAYYYWGQGTQVTVSS", "polyreactivity (PSR sort gate)": "high polyreactivity"}
{"sequence": "QVQLVESGGGLVQAGGSLRLSCAASGGIFGFNAMGWYRPAPGKERELVADISDGVRTNYADSVKGRFTISRDNAKNTVYLQMNSLKPEDTAVYYCATDGLFLAWAPLGALAFDYWGQGTQVTVSS", "polyreactivity (PSR sort gate)": "low polyreactivity"}
{"sequence": "QVQLVESGGGLVQAGGSLRLSCAASGGIFGGNAMGWYRQAPGQERELVAAISRSSGSTYYADSVKGRFTISRDNAKNTVYLQMNSLKPEDSAVYYCNVEGYGRRFDYWGQGTQVTVSS", "polyreactivity (PSR sort gate)": "high polyreactivity"}
{"sequence": "QVQLVESGGGLVQAGGSLRLSCAASGGIFGLYAMGWYRQAPGKERELVAAISWSGGSTYYADSVKGRFTISRDNAKNTVYLQMNSLKPEDTAVYYCAAEWDTNFWYDYWGQGTQVTVSS", "polyreactivity (PSR sort gate)": "low polyreactivity"}
{"sequence": "QVQLVESGGGLVQAGGSLRLSCAASGGIFGLYTMGWYRQAPGKERELVAGISKRGTRTRYADSVKGRFTISRDHAKNTVYLQMNSLKPEDTAVYYCNADYYVSKLDYWGQGTQVTVSS", "polyreactivity (PSR sort gate)": "high polyreactivity"}
{"sequence": "QVQLVESGGGLVQAGGSLRLSCAASGGIFGRYDMGWYRQAPGKERELVAAISKRGGSTYYADSVKGRFTISRDNAKNTVYLQMNSLKPEDTAVYYCNAAQSVELGYDYWGQGTQGTVSS", "polyreactivity (PSR sort gate)": "high polyreactivity"}
{"sequence": "QVQLVESGGGLVQAGGSLRLSCAASGGIFGSYAMGWYRQAPGKERELVADITQSGGRTRYADSVKGRFTISRDNAKNTVYLQMNSLKPEDSAVYYCNAQDVDSGDDYDYWGQGTQVTVSS", "polyreactivity (PSR sort gate)": "low polyreactivity"}
{"sequence": "QVQLVESGGGLVQAGGSLRLSCAASGGIFGYYAMGWYRQAPGKEREFVAAISVSGGSTYYADSVKGRFTISRDNAKNTVYLQMNSLKPEDTAVYYCAADVIVLRPGEYDYWGQGTQVTVSS", "polyreactivity (PSR sort gate)": "low polyreactivity"}
